According to the supplement of paper PMC9170038:

System: MS2 coat protein
Assay: apparent KD of MS2 coat protein; designed switch direction (-1 OFF switch, 1 ON switch): 1; higher = weaker reporter binding
Outline: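 Each step of the titration lasted 0.8–1.5 h at the lowest concentration and 10–20 min at the highest. The protein, SNAP-549-labelled MS2 coat protein, went from 0.7 or 1.5 nM doubling to 3 µM over RNA switches transcribed on Illumina chips by stalled E. coli RNA polymerase. Normalised cluster fluorescence was curve-fitted, and the per-design median over clusters is given as apparent KD.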

[1] = input ligand: microRNA oligo, concentration not stated
[2] = Eterna round: R95, input ligand: FMN 200 uM
[3] = Eterna round: R95, input ligand: microRNA oligo, concentration not stated
[4] = Eterna round: R95, input ligand: none

## UGUUGUAUUACAGGAUAUCUAUUAGUUUUUUUUAGAGAAGGGUAUUCACAUGAGGAUCACCCAUGUAUAUACGAGGAAGUUGUG [JMF's solution 96] (Eterna round: R96, puzzle: Same State NG 1)
[1]
  apparent KD of MS2 coat protein: 36.8 nM

## UGUUGUUAAUUAGGAUAUGGGCACAUGAGGAUCACCCAUGUAUUUUCGAUGCUAUGUGGAGACGUCUAGAAGGAAUGGCUAACA [SameState NG2 #89] (Eterna round: R96, puzzle: Same State NG 2)
Input ligand: FMN 200 uM
  apparent KD of MS2 coat protein: 205 nM
[1]
  apparent KD of MS2 coat protein: 212 nM
Input ligand: none
  apparent KD of MS2 coat protein: 219 nM

## UGUUGUUAAUUAGGAUAUGGUCACAUGAGGAUCACCCAUGUAAUGUCGAUGCUAUGUGGAUCUGAUCAGAAGGAAUGGCUAACA [SameState NG2 #96] (Eterna round: R96, puzzle: Same State NG 2)
Input ligand: FMN 200 uM
  apparent KD of MS2 coat protein: 108 nM
[1]
  apparent KD of MS2 coat protein: 105 nM
Input ligand: none
  apparent KD of MS2 coat protein: 137 nM

## UGUUGUUAAUUAGGAUAUGGUCACAUGAGGAUCACCCAUGUAAUGUCGAUGCUAUGUGGAUUUGAUCAGAAGGAAUGGUUAACA [SameState NG2 #98] (Eterna round: R96, puzzle: Same State NG 2)
Input ligand: FMN 200 uM
  apparent KD of MS2 coat protein: 49.2 nM
[1]
  apparent KD of MS2 coat protein: 62.3 nM
Input ligand: none
  apparent KD of MS2 coat protein: 90.4 nM

## UUAAAACAUGAGGAUCACCCAUGUAAUAAUAUGGGAGGAUAUCAGAUUUAAUUUAAUUUAUGAGAAGGCCUAAAUG [Mat - Same State 1 - Mod of Eli - D60] (puzzle: Same State 1)
[2]
  apparent KD of MS2 coat protein: 65.4 nM
[3]
  apparent KD of MS2 coat protein: 407 nM
[4]
  apparent KD of MS2 coat protein: 1150 nM

## UUAAAACAUGAGGAUCACCCAUGUCAACAAAGUCGAGGAUAUGGGCAAAUAAAAUAAGAACCAGAAGGCGAAUAAG [salish99_SS1_r3_005] (puzzle: Same State 1)
[2]
  apparent KD of MS2 coat protein: 36.9 nM
[3]
  apparent KD of MS2 coat protein: 221 nM
[4]
  apparent KD of MS2 coat protein: 314 nM

## UUAAAACAUGAGGAUCACCCAUGUCAUCUAAGUCGAGGAUAUGGGAAUUAAUUAAUUAAACCAGAAGGCGAAUAUU [Mat - Same State 1 - D90] (puzzle: Same State 1)
[2]
  apparent KD of MS2 coat protein: 38.6 nM
[3]
  apparent KD of MS2 coat protein: 439 nM
[4]
  apparent KD of MS2 coat protein: 543 nM

## UUAAAACAUGAGGAUCACCCAUGUCAUCUAAGUCGAGGAUAUGGGCAUAUAAUAUAAGAACCAGAAGGCGAAUAUU [Mat - Same State 1 - Mod of UCT - D26] (puzzle: Same State 1)
[2]
  apparent KD of MS2 coat protein: 113 nM
[3]
  apparent KD of MS2 coat protein: 37.7 nM
[4]
  apparent KD of MS2 coat protein: 58.4 nM

## UUAACAUGAGGAUCACCCAUGUAUAGGGAGUUAGCAAUUGGACAGGAUAUUGAAGAUGUAGAUAGCAAGAAGGGUCGGUAGUCU [JR_SSNG3_Sub002] (Eterna round: R96, puzzle: Same State NG 3)
Input ligand: FMN 200 uM
  apparent KD of MS2 coat protein: 36.8 nM
[1]
  apparent KD of MS2 coat protein: 32.9 nM
Input ligand: none
  apparent KD of MS2 coat protein: 46.7 nM

## UUAACAUGAGGAUCACCCAUGUAUAGGGAGUUUGCAAUUUGACAGGAUAUUGAAGAUGUAGAUAGCAAGAAGGGUCGGUAGUCU [JR_SSNG3_Sub004] (Eterna round: R96, puzzle: Same State NG 3)
Input ligand: FMN 200 uM
  apparent KD of MS2 coat protein: 46.1 nM
[1]
  apparent KD of MS2 coat protein: 32.4 nM
Input ligand: none
  apparent KD of MS2 coat protein: 43.9 nM

## UUAAGCAACGGGCAGGAUAUGUAUUAAAAUACAUGAGGAUCACCCAUGUGCAGGUGUAACACCUGACAGAAGGGCCAAUCGCUGC [Soteed - 7] (puzzle: Same State 2)
[2]
  apparent KD of MS2 coat protein: 63.8 nM
[3]
  apparent KD of MS2 coat protein: 531 nM
[4]
  apparent KD of MS2 coat protein: 900 nM

## UUAAGCAACGGGCAGGAUAUGUAUUAAAAUACAUGAGGAUCACCCAUGUGCAGGUGUAACACCUGACAGAAGGGCCAAUCGGUGC [Soteed - 8] (puzzle: Same State 2)
[2]
  apparent KD of MS2 coat protein: 39.5 nM
[3]
  apparent KD of MS2 coat protein: 256 nM
[4]
  apparent KD of MS2 coat protein: 409 nM

## UUAAUAAUGAUAGGAUAUACAUGAGGAAUUCUCGUAGAAGGAUCAUGACAUGAGGAUCACCCAUGUAACGCUCAGAAGAGCGUA [Mat - Same State NG 1 - JL mod - D37] (Eterna round: R96, puzzle: Same State NG 1)
Input ligand: FMN 200 uM
  apparent KD of MS2 coat protein: 493 nM
[1]
  apparent KD of MS2 coat protein: 184 nM
Input ligand: none
  apparent KD of MS2 coat protein: 730 nM

## UUAAUAAUGUUAGGAUAUACAUGAGGAAUCCUCGUAGAAGGAACAUGACAUGAGGAUCACCCAUGUAGCGCUCAGAAGAGCGCA [Mat - Same State NG 1 - JL mod - D47] (Eterna round: R96, puzzle: Same State NG 1)
Input ligand: FMN 200 uM
  apparent KD of MS2 coat protein: 138 nM
[1]
  apparent KD of MS2 coat protein: 31.3 nM
Input ligand: none
  apparent KD of MS2 coat protein: 135 nM

## UUAAUGAAGUAAGGAUAUACAUGAGGAUCACUCGUAGAAGGUACUAUACAUGAGGAUCACCCAUGUGCCGGUCCGUAGACUGGA [JL SSNG1 1.03] (Eterna round: R96, puzzle: Same State NG 1)
Input ligand: FMN 200 uM
  apparent KD of MS2 coat protein: 554 nM
[1]
  apparent KD of MS2 coat protein: 184 nM
Input ligand: none
  apparent KD of MS2 coat protein: 1090 nM

## UUAAUGAUGAAAGGAUAUACAUGAGGAAUUCUCGUAGAAGGUUCAUGACAUGAGGAUCACCCAUGUAUCGCUCAGAAGAGCGUA [Mat - Same State NG 1 - JL mod - D29] (Eterna round: R96, puzzle: Same State NG 1)
Input ligand: FMN 200 uM
  apparent KD of MS2 coat protein: 47.4 nM
[1]
  apparent KD of MS2 coat protein: 36 nM
Input ligand: none
  apparent KD of MS2 coat protein: 85.4 nM

## UUAAUGAUGAAAGGAUAUACAUGAGGAAUUCUCGUAGAAGGUUCAUGACAUGAGGAUCACCCAUGUAUCGCUCGAAAGAGCGUA [Mat - Same State NG 1 - JL mod - D30] (Eterna round: R96, puzzle: Same State NG 1)
Input ligand: FMN 200 uM
  apparent KD of MS2 coat protein: 149 nM
[1]
  apparent KD of MS2 coat protein: 11.6 nM
Input ligand: none
  apparent KD of MS2 coat protein: 47.1 nM

## UUAAUGAUGAUAGGAUAUACAUGAGGAAUUCUCGUAGAAGGAUCAUGACAUGAGGAUCACCCAUGUAUCGCUCAGAAGAGCGUA [Mat - Same State NG 1 - JL mod - D32] (Eterna round: R96, puzzle: Same State NG 1)
Input ligand: FMN 200 uM
  apparent KD of MS2 coat protein: 1340 nM
[1]
  apparent KD of MS2 coat protein: 368 nM
Input ligand: none
  apparent KD of MS2 coat protein: 528 nM

## UUAAUUAAUUAAUUAUACAUGAGGAUCACCCAUGUAAGUGAUCAGGAUAUCAGCUCGAUUAGAGCUGAGAAGGGAUCCAUGUAA [SSNG3/14-A2] (Eterna round: R96, puzzle: Same State NG 3)
[1]
  apparent KD of MS2 coat protein: 78 nM

## UUAAUUAAUUAAUUAUACAUGAGGAUCACCCAUGUAAGUGAUCAGGAUAUCAGCUCGUGUAGAGCUGAGAAGGGAUACAUGUAA [SSNG3/12-A4] (Eterna round: R96, puzzle: Same State NG 3)
[1]
  apparent KD of MS2 coat protein: 147 nM

## UUAAUUAGUUGAGGAUAUUAUGUCGACUGAGACGACAUGAGGAUCACCCAUGUGAGAAGUGGUUUUAAGAAGGCAACAUUCAUA [JR_SSNG2_Sub088] (Eterna round: R96, puzzle: Same State NG 2)
Input ligand: FMN 200 uM
  apparent KD of MS2 coat protein: 55.9 nM
[1]
  apparent KD of MS2 coat protein: 83 nM
Input ligand: none
  apparent KD of MS2 coat protein: 141 nM

## UUACAGCACGGGUAGGAUAUGUAGGGUGGUACAUGAGGAUCACCCAUGUAUCCACCCUUCUAACGGCAGAAGGGCCUGUCGCUGC [Riarve] (Eterna round: R96, puzzle: Same State 2)
Input ligand: FMN 200 uM
  apparent KD of MS2 coat protein: 28.3 nM
[1]
  apparent KD of MS2 coat protein: 11.2 nM
Input ligand: none
  apparent KD of MS2 coat protein: 27.5 nM

## UUACAGUGCGGGUAGGAUAUGUAGGGUGGUACAUGAGGAUCACCCAUGUAUCCACCCUUCUACCGGCAGAAGGGCCUGUCACUGC [Enlaeror] (Eterna round: R96, puzzle: Same State 2)
Input ligand: FMN 200 uM
  apparent KD of MS2 coat protein: 17.2 nM
[1]
  apparent KD of MS2 coat protein: 9.64 nM
Input ligand: none
  apparent KD of MS2 coat protein: 17 nM

## UUACUCAUGUAAGGAUAUGCAGCCGUUUCGGCUGCAGAAGGUACUAUAAUACAUGAGGAUCACCCAUGUCUCUAUAAUUUAGUG [JL SSNG1 1.30] (Eterna round: R96, puzzle: Same State NG 1)
Input ligand: FMN 200 uM
  apparent KD of MS2 coat protein: 102 nM
[1]
  apparent KD of MS2 coat protein: 38.6 nM
Input ligand: none
  apparent KD of MS2 coat protein: 49.7 nM

## UUAUACUAGAGAGGAUAUGCAGAGGAUCACCCUGCAGAAGGCUCGUUAGAGAGGAUAUGCAGAGGAUCACCCUGCAGAAGGCUC [pwkr ssNG DX.23] (Eterna round: R96, puzzle: Same State NG 1)
Input ligand: FMN 200 uM
  apparent KD of MS2 coat protein: 17.2 nM
[1]
  apparent KD of MS2 coat protein: 8.62 nM
Input ligand: none
  apparent KD of MS2 coat protein: 15.2 nM

## UUAUCUCAGACAUGAGGAUCACCCAUGUUUUUUUGUCUUAGACAGGAUAUAGUAGUAUCGAAAUACUAGAAGGGUCAUUUUAUU [JR_SSNG3_Sub023] (Eterna round: R96, puzzle: Same State NG 3)
Input ligand: FMN 200 uM
  apparent KD of MS2 coat protein: 18.4 nM
[1]
  apparent KD of MS2 coat protein: 23.5 nM
Input ligand: none
  apparent KD of MS2 coat protein: 28.9 nM

## UUAUUAUACGUAGGAUAUUGAUGAUUGAUAGUACAAGAAGGACGAACAUGAGGAUCACCCAUGUAUAUUAAAAUGAGUUUGAAU [JR_SSNG1_Sub077] (Eterna round: R96, puzzle: Same State NG 1)
Input ligand: FMN 200 uM
  apparent KD of MS2 coat protein: 72.8 nM
[1]
  apparent KD of MS2 coat protein: 52.8 nM
Input ligand: none
  apparent KD of MS2 coat protein: 55.1 nM

## UUCACCUUUUAUAACAUGAGGAUCACCCAUGUAUAUUGUACGUAGGAUAUCGAUGUUAGUUUUUUCGAGAAGGACGAUGUAAGU [JR_SSND3_Sub049] (Eterna round: R96, puzzle: Same State NG 3)
Input ligand: FMN 200 uM
  apparent KD of MS2 coat protein: 29.6 nM
[1]
  apparent KD of MS2 coat protein: 40.7 nM
Input ligand: none
  apparent KD of MS2 coat protein: 53.9 nM

## UUCACCUUUUAUAACAUGAGGAUCACCCAUGUAUAUUGUACGUAGGAUAUCGAUGUUUGUUUUUUCGAGAAGGACGAUGUAAGU [JR_SSND3_Sub050] (Eterna round: R96, puzzle: Same State NG 3)
Input ligand: FMN 200 uM
  apparent KD of MS2 coat protein: 37 nM
[1]
  apparent KD of MS2 coat protein: 25.4 nM
Input ligand: none
  apparent KD of MS2 coat protein: 38.9 nM

## UUCCCAGCGGGAGGAUAUGGUGCCUUGUUGGUGCUAGAAGGUCCAACAUGAGGAUCACCCAUGUGGGAGUGGUCGAAAGACCUC [SS NG10LRO09] (Eterna round: R96, puzzle: Same State NG 1)
Input ligand: FMN 200 uM
  apparent KD of MS2 coat protein: 224 nM
[1]
  apparent KD of MS2 coat protein: 186 nM
Input ligand: none
  apparent KD of MS2 coat protein: 318 nM
